Earlier results, collected in paper PMC3094721.

Biological target: ChemR23 (Homo sapiens) (UniProt Q99788)
Experiment: radioligand

ChemR23 (Homo sapiens), sequence (Q99788 whole entry): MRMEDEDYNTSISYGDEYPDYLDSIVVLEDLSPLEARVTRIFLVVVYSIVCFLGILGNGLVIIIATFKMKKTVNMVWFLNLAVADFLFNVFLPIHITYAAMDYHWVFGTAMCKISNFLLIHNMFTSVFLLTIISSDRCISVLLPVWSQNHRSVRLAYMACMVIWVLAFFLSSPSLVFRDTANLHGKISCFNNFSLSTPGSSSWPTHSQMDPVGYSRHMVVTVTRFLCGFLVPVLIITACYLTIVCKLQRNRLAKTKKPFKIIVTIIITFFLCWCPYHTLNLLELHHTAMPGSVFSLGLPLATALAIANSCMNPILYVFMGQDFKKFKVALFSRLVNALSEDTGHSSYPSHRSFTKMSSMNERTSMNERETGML
chemerin peptide, sequence (Q99969 21-157): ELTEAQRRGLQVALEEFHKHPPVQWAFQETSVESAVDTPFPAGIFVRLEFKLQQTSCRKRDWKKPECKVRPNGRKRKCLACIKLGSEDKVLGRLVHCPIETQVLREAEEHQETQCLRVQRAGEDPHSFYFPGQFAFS

Ki: 429 nM
Substance: chemerin peptide (from UniProt Q99969)
